According to patent US20070049521A1 (ENOBIA PHARMA, published 2007):
Each block holds one binder with its values, some of them ahead of it. No end group written: not given here.

How the values were obtained:
[1] = target: T1, human NPR-C (natriuretic peptide receptor C, clearance receptor), overexpressed on HEK293 cells (human, UniProt P17342 27-541); assay: cell-based or functional assay
T1 sequence (looked up): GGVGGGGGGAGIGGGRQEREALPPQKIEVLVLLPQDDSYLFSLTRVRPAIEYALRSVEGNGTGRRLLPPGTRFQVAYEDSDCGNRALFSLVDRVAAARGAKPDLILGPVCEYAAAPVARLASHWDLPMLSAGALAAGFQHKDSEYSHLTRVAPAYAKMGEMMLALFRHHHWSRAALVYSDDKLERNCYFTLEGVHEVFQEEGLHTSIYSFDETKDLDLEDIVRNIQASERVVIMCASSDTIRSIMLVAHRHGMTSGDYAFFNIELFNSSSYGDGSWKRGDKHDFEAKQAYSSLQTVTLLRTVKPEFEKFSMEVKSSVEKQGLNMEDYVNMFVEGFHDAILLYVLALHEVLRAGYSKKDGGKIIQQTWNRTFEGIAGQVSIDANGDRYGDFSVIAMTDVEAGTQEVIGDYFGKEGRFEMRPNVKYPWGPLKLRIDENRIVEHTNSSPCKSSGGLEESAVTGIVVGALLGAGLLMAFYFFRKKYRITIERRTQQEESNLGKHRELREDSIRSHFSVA

[2] = target: T2, endogenous GC-A of HEK293 cells (human, UniProt P16066 33-1061); assay: cell-based or functional assay
T2 sequence (looked up): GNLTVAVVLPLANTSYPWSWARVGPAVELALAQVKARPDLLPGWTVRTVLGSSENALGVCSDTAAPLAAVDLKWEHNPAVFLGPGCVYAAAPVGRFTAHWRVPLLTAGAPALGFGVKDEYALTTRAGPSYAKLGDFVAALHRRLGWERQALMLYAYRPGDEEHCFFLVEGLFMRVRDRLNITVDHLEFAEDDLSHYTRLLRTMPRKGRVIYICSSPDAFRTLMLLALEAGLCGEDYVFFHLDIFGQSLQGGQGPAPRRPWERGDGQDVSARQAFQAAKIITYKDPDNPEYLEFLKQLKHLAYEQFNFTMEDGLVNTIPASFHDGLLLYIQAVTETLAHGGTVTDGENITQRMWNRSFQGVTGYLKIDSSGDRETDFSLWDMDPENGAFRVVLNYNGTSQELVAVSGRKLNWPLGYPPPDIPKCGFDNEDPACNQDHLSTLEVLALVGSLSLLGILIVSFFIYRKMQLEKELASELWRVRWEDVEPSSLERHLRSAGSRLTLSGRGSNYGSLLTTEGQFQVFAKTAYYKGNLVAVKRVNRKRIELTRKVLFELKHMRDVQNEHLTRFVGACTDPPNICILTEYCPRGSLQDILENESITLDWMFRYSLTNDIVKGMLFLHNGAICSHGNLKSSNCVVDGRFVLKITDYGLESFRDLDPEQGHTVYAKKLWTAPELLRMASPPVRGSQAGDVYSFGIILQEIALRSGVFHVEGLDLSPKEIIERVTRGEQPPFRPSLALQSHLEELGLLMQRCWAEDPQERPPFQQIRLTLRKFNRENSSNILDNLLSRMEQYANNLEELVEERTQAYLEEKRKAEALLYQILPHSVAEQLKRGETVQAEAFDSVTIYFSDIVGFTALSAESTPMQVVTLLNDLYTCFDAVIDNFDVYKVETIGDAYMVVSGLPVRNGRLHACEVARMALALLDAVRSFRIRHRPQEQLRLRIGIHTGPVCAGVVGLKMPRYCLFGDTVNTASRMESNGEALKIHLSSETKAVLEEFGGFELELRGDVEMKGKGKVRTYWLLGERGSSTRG

[3] = target: T1, human NPR-C (natriuretic peptide …); assay: PLAP activity bound to NPR-C-transfected HEK293 cells, saturation binding
Excerpt: (§1) To analyze the potential binding of Ostn to natriuretic receptors, a fusion protein (PLAP-Ostn) (FIG. 6) was generated as described above. This fusion protein comprised an N-terminal secreted placental alkaline phosphatase (PLAP) moiety linked to mature mouse Ostn (residues 29-130) (SEQ ID NO: 62). Conditioned media containing PLAP-mOstn was used to assess Ostn binding on transiently transfected cells.

[4] = target: T3, rat GC-A, overexpressed on HEK293 cells (rat, UniProt P18910 29-1057); assay: PLAP activity bound to transiently transfected HEK293 cells
T3 construct: whole, on cells
T3 sequence (looked up): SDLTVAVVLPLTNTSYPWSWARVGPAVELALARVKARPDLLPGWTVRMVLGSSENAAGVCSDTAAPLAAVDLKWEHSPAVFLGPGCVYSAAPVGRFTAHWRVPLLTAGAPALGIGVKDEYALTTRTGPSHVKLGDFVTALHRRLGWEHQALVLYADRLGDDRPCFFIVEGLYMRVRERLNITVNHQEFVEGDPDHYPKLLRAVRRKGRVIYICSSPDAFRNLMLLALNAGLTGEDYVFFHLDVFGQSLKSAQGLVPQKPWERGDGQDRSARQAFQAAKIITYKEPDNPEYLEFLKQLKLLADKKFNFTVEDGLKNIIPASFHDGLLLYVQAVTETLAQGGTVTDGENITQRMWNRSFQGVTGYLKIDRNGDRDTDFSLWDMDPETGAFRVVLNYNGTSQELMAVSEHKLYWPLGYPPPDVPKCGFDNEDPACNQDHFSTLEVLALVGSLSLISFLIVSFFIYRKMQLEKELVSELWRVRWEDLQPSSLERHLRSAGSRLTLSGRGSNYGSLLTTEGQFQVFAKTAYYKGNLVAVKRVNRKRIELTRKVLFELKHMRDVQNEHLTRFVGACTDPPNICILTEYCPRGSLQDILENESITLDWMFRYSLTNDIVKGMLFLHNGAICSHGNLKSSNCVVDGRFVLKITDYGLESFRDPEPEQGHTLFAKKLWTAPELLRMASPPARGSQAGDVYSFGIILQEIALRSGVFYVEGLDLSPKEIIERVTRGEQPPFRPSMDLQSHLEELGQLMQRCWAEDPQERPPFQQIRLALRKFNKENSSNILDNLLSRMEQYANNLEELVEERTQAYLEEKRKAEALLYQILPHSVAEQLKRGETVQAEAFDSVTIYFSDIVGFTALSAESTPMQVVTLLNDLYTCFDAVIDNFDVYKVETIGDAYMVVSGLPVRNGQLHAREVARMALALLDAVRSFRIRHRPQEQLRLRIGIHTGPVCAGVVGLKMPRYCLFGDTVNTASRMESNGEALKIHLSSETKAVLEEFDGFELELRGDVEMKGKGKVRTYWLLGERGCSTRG
Excerpt: as §1

[5] = target: T4, human GC-B, overexpressed on HEK293 cells (human, UniProt P20594 23-1047); assay: as above
T4 construct: whole, on cells
T4 sequence (looked up): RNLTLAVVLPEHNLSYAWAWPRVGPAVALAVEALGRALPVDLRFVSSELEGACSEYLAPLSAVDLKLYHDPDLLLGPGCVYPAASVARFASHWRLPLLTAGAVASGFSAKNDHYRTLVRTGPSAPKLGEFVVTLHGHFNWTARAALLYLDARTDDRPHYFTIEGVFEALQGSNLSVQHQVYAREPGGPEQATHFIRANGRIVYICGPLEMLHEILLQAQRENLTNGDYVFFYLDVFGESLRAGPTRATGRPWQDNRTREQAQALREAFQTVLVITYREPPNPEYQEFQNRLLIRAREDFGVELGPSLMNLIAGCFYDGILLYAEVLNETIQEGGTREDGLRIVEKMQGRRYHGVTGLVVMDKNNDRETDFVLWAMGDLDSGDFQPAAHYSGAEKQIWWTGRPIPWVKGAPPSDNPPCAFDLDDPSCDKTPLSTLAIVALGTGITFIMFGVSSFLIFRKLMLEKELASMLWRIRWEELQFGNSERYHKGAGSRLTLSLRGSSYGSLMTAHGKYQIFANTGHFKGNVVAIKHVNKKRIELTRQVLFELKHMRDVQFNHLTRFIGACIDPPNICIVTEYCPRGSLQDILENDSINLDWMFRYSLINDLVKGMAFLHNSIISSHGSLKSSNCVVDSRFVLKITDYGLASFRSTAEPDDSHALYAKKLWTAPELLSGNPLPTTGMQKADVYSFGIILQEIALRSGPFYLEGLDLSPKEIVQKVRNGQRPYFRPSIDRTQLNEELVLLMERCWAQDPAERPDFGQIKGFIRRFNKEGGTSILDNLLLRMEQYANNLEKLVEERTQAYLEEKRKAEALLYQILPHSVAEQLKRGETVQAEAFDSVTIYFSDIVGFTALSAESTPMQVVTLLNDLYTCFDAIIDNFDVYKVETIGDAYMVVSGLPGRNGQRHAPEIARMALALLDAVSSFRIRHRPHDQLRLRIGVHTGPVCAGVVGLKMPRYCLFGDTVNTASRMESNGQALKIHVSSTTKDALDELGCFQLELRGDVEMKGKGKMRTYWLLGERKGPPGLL
Excerpt: as §1

[6] = target: T1, human NPR-C (natriuretic peptide …); assay: competition of ~30 nM PLAP-Ostn binding on NPR-C-transfected HEK293 cells
Description: To further validate the specificity and affinity of Ostn-NPR-C binding, competition experiments were conducted in NPR-C over-expressing cells. […] (SEQ ID NO: 71) lacking a part of NM2. […] (SEQ ID NO: 66) or Ostn[117-130] (SEQ ID NO: 71). […] (SEQ ID NO: 66) was able to compete off 50% of the binding of PLAP-mOstn in the ˜1-10 nM range, in contrast to Ostn[117-130] (SEQ ID NO: 71) that was unable to efficiently compete up to 100 nM (FIG. 7B).

[7] = target: T5, NPR-C on ATDC5 cells (mouse chondrogenic cell line) (mouse, UniProt P70180 41-536); assay: displacement of 125I-Ostn[83-133] from ATDC5 cells
T5 construct: whole, on cells; also called ATDC5 cells surface
T5 sequence (looked up): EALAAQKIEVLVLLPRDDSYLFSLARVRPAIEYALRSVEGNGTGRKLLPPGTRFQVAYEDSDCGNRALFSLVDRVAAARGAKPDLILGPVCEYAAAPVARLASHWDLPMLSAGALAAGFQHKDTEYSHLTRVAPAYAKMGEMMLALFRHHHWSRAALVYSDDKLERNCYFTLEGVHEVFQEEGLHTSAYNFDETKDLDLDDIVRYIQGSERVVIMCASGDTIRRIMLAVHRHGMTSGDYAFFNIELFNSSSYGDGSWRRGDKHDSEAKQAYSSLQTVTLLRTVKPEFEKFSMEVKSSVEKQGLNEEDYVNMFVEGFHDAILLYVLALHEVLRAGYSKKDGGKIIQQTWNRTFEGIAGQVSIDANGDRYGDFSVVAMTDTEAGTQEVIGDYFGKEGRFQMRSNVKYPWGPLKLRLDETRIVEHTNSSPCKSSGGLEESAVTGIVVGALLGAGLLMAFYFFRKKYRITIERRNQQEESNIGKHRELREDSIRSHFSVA
Description: (SEQ ID NO: 41) for 90 min at 4° C. After incubation, cells were washed twice with ice-cold PBS and solubilized with 0.5-ml of 0.5 M NaOH.
The radioactivity was measured with gamma-counter (Wallac). […] (SEQ ID NO: 41) and the IC₅₀ calculated was 4.7 nM. […] (SEQ ID NO: 41) (FIG. 12b).

B1: PLAP-Ostn fusion protein (N-terminal secreted placental alkaline phosphatase moiety linked to mouse Ostn[29-130]) (other)
chain: DAAQPARRARRTYEAYVRSSGIIPVEEENPDFWNREAAEALGAAKKLQPAQTAAKNLIIFLGDGMGVSTVTAARILKGQKKDKLGPEIPLAMDRFPYVALSKTYNVDKHVPDSGATATAYLCGVKGNFQTIGLSAAARFNQCNTTRGNEVISVMNRAKKAGKSVGVVTTTRVQHASPAGTYAHTVNRNWYSDADVPASARQEGCQDIATQLISNMDIDVILGGGRKYMFPMGTPDPEYPDDYSQGGTRLDGKNLVQEWLAKRQGARYVWNRTELMQASLDPSVTHLMGLFEPGDMKYEIHRDSTLDPSLMEMTEAALRLLSRNPRGFFLFVEGGRIDHGHHESRAYRALTETIMFDDAIERAGQLTSEEDTLSLVTADHSHVFSFGGYPLRGSSIFGLAPGKARDRKAYTVLLYGNGPGYVLKDGARPDVTESESGSPEYRQQSAVPLDEETHAGEDVAVFARGPQAHLVHGVQEQTFIAHVMAFAACLEPYTACDLAPPAGTTDAAHPGYLDLASQEFGTASLQSPPTAREEKSATELSAKLLRLDDLVSLENDVFETKKKRSFSGFGSPLDRLSAGSVEHRGKQRKAVDHSKKRFGIPMDRIGRNRLSSSRG
notes: Used as conditioned medium of transfected HEK293 cells; also called PLAP-mOstn
EC50 [3]: ~30 nM
binding result [4]: no binding
binding result [5]: no binding

B2: human Ostn[83-133] (cold) (peptide)
peptide: SFSGFGSPLDRLSAGSVDHKGKQRKVVDHPKRRFGIPMDRIGRNRLSNSRG
notes: Bought from Phoenix Pharmaceutical co
IC50 [7]: 4.7 nM

Continued, values first:

increase in cGMP levels upon stimulation of NPR-C-overexpressing HEK293 cells with 0.1 nM ANP[1-28] [1]: 1.5 fold
increase in cGMP levels upon ANP stimulation of GFP-transfected HEK293 cells [2]: 9 fold
Binder: SLRRSSCFGGRIDRIGAQSGLGCNSFRY (ligand, ends and bridges not checked; cysteine pairing not given here) [Rat ANP (1-28)]

IC50 [6]: 1 to 10 nM
cGMP levels of NPR-C-expressing HEK293 cells with 0.1 nM ANP and 10 nM Ostn[107-129] [1]: 4 fold
Binder: YDHSKKRFGIPMDRIGRNRLSNSR-NH2 [mouse amidated Ostn[107-129] synthetic C-terminal peptide]
